Each block holds one binder with its values, some of them ahead of it.
Tests used:
[1] = molecular target: T1, biotinylated huPD-L1 (human, UniProt Q9NZQ7 19-238, limits assumed, biotinylated (site not stated)); assay: ELISA, antibody coated, biotinylated huPD-L1 detected by avidin-HRP
T1 construct: it is treated here as the same reagent; also called biotinylated PD-L1

[2] = molecular target: T2, human TGF-β1 (human, UniProt P01137 279-390, biotinylated in the FIG. 8C ELISA; unlabelled rhTGF-β1 in FIG. 9B/9C); assay: ELISA, protein coated, biotinylated huTGFb1 detected by avidin-HRP
T2 construct: also called biotinylated huTGFb1; rhTGF-β1
T2 sequence (P01137 279-390 limits assumed): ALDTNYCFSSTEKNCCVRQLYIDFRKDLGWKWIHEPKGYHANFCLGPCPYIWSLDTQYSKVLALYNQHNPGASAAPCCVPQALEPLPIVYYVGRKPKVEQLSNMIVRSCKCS

T1 sequence (Q9NZQ7 19-238 limits assumed): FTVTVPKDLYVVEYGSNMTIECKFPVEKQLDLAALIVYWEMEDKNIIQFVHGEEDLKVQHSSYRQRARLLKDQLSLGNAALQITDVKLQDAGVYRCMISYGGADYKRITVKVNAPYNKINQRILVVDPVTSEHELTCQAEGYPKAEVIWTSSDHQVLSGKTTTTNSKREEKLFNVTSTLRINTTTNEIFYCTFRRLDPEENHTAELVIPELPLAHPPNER

binding result [1]: no binding
B1: anti-PD1 (nivolumab) (antibody, human IgG4 S228P, kappa, V domains shown)
VH: QVQLVESGGGVVQPGRSLRLDCKASGITFSNSGMHWVRQAPGKGLEWVAVIWYDGSKRYYADSVKGRFTISRDNSKNTLFLQMNSLRAEDTAVYYCATNDDYWGQGTLVTVSS
VL: EIVLTQSPATLSLSPGERATLSCRASQSVSSYLAWYQQKPGQAPRLLIYDASNRATGIPARFSGSGSGTDFTLTISSLEPEDFAVYYCQQSSNWPRTFGQGTKVEIKR
notes: Negative control in the PD-L1 ELISA

binding result [2]: no binding
B2: anti-VEGF (bevacizumab) (antibody, human IgG1, kappa, V domains shown)
VH: EVQLVESGGGLVQPGGSLRLSCAASGYTFTNYGMNWVRQAPGKGLEWVGWINTYTGEPTYAADFKRRFTFSLDTSKSTAYLQMNSLRAEDTAVYYCAKYPHYYGSSHWYFDVWGQGTLVTVSS
VL: DIQMTQSPSSLSASVGDRVTITCSASQDISNYLNWYQQKPGKAPKVLIYFTSSLHSGVPSRFSGSGSGTDFTLTISSLQPEDFATYYCQQYSTVPWTFGQGTKVEIKR

— patent publication US20210107969A1 (Johns Hopkins, published 2021)
